Data set [1] has as its target T1, alpha-2 macroglobulin (Homo sapiens, UniProt P01023).
T1 sequence (P01023 24-1474): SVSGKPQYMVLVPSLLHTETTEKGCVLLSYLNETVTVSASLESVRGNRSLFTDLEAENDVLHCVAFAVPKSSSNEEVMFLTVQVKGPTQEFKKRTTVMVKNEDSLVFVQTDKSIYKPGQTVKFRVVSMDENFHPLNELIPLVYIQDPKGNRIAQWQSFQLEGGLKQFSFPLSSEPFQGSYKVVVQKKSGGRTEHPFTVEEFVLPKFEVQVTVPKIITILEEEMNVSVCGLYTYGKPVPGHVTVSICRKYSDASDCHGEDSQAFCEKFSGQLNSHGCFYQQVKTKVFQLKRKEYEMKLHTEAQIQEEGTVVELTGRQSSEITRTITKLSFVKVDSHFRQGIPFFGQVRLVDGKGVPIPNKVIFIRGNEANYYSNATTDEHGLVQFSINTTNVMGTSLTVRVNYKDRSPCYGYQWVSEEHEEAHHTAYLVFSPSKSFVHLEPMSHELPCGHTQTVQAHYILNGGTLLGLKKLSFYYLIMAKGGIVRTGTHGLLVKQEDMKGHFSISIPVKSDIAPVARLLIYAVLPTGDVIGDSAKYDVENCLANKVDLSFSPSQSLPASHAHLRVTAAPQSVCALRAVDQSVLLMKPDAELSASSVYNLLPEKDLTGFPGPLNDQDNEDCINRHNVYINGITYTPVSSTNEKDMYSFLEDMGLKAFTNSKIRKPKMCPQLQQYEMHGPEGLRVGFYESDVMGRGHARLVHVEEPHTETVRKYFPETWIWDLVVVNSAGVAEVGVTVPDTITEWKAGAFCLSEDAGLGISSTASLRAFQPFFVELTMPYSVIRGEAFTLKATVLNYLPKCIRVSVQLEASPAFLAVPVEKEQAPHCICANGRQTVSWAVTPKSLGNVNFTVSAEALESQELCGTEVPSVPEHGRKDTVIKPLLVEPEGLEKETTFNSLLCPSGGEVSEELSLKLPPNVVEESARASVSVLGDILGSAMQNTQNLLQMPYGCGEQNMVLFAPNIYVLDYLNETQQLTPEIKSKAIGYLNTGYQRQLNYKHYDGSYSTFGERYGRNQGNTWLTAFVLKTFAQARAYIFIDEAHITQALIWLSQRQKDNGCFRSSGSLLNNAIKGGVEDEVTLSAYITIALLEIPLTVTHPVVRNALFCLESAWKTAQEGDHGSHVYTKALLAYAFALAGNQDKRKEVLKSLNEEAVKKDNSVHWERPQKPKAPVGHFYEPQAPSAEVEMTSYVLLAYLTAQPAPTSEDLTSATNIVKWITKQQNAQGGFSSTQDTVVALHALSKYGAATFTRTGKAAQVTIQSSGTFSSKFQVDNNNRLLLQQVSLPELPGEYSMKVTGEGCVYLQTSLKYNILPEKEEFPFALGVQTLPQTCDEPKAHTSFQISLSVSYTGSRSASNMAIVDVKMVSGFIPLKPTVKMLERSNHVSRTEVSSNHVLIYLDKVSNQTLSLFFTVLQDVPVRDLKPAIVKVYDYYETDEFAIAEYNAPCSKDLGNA
Put plainly: competition binding assay with immobilized alpha-2 macroglobulin and labeled and unlabeled TDF-1. To be noted: immobilized alpha-2 macroglobulin. The source says:
This N-terminal portion of the protein, which is not part of the crystal structure, is positively charged and likely is highly flexible in solution.

Data set [2] has as its system ROS cells. Put plainly: effect of alpha-2 macroglobulin on TDF-1 stimulated alkaline phosphatase activity in a ROS cell assay. The data set is classed as cell-based.
In data set [3] the target is alpha-2 macroglobulin. Description: competition binding assay, immobilized alpha-2 macroglobulin.
A short description of data set [4]: solubility by comparing the partition coefficient of mutein versus wild type hTDF-1 dimer. It is filed as physicochemical. To be noted: partition coefficient comparison, surmised result. The source says: The resulting candidate morphogen analogs can be produced using conventional site-directed mutagenesis methodologies, and the effect of the site-directed modification on the solubility of the hTDF-1 dimer can be measured, for example, by comparing the partition coefficient or “salting out properties” of the modified hTDF-1 dimer versus the native hTDF-1 dimer. See, for example, Scopes (1987) in Protein Purification: Principles and Practice, 2nd Edition (Springer-Verlag); and Englard et al. (1990) Meth. Enzymol. 182: 285-300, both incorporated herein by reference.
The enhanced solubility of the resulting morphogen analog is measured by comparing the partition coefficient of the Ala 63->Ser 63 mutein versus wild type hTDF-1 dimer. […] It is contemplated that additional muteins having multiple hydrophobic to hydrophilic substitutions can be produced and characterized using the protocols described in this Example. The biological activity of the resulting morphogen analogs can be determined using one or more of the TDF-1 activity assays described Example 1.

“TDF-1: tissue morphogenic protein Transformation and Differentiation Factor-1, SEQ ID NO:1”: in data set [1], the “interaction with alpha-2 macroglobulin” value was “interact specifically”.

On to “Alpha-2 macroglobulin: protease scavenging protein known to bind proteins in serum and target them to the kidney for clearance”, for which the “interference with TDF-1's ability to stimulate alkaline phosphatase activity” value in data set [2] is reported as “not to interfere”.

Turning to “truncated mature TDF-1, wherein the first 22 amino acids have been cleaved from the mature form of TDF-1 in a standard trypsin digest (ligand)”, the fold less affinity than TDF-1 in data set [3] turned out to be 10 fold.

B1: Ala 63->Ser 63 mutein: hTDF-1 with the alanine at position 63 mutated to a serine (protein, UniProt P18075 293-431, looked up, variant A63S)
Bone morphogenetic protein 7: STGSKQRSQNRSKTPKNQEALRMANVAENSSSDQRQACKKHELYVSFRDLGWQDWIIAPEGYSAYYCEGECAFPLNSYMNATNHAIVQTLVHFINPETVPKPCCAPTQLNAISVLYFDDSSNVILKKYRNMVVRACGCH
For B1, in data set [4], the “solubility versus native hTDF-1” value is on record as “higher solubility than native hTDF-1”.

For the origin of these results see patent US20040093164A1, “Computer system and methods for producing morphogen analogs of human TDF-1” (priority 2002, published 2004).
